From patent publication US20200071404A1 (Astellas, published 2020)

T1: human CD73 protein (R&D Systems, Inc., 5795) (human, UniProt P21589 27-549)
T1 sequence (looked up): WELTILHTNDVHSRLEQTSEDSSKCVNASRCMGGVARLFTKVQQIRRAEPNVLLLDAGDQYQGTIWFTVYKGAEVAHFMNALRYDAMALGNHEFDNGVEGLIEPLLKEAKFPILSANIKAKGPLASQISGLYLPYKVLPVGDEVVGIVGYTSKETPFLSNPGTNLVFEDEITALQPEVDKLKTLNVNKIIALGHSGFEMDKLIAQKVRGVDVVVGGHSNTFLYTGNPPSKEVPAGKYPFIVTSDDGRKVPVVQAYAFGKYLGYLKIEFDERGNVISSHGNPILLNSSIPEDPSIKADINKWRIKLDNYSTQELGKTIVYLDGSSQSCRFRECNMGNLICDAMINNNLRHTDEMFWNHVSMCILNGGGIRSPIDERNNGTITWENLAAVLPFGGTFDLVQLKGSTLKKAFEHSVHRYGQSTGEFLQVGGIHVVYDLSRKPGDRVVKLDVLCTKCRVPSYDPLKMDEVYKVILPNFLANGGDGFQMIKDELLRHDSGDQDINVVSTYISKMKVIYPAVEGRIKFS

T2: human CD73 protein (BPS Bioscience Inc., 71184) (human, UniProt P21589 27-547, limits assumed)
T2 sequence (looked up): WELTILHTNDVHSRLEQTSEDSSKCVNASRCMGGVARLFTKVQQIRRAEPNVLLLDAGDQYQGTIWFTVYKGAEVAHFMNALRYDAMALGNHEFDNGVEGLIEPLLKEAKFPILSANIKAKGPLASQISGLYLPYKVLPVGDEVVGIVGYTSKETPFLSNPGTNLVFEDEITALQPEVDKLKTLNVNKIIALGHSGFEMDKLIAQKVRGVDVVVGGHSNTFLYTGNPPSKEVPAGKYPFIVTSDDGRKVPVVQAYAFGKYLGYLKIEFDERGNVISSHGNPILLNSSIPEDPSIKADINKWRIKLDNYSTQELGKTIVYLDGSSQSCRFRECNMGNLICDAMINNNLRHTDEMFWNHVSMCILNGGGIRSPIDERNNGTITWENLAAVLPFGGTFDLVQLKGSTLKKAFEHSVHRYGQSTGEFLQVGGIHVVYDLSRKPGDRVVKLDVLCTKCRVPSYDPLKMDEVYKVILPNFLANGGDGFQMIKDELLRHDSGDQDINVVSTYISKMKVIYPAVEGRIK

T3: human CD73 expressed on cells (cancer cell line NCI-H1373 endogenously expressing human CD73); human T cell … (human, UniProt P21589 27-549)
T3 sequence (looked up): T1 sequence (looked up)

B1: anti-human CD73 antibody CDS-1 (antibody, human IgG1, kappa, L234A L235A)
heavy: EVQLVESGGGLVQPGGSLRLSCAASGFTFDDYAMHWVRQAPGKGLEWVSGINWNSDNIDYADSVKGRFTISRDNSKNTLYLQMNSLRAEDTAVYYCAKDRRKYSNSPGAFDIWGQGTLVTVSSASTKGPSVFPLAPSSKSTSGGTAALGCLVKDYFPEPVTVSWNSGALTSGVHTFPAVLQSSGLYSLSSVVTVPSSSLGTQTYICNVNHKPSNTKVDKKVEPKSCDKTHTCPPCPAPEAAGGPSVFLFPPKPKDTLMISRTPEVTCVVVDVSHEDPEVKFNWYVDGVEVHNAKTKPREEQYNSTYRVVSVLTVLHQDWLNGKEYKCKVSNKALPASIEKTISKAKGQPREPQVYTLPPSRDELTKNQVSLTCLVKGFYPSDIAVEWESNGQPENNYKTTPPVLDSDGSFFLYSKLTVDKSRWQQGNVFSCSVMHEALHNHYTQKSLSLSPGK
light: DIQMTQSPSSLSASVGDRVTITCRASQIIGPWLAWYQQKPGKAPKLLIYRASSLESGVPSRFSGSGSGTDFTLTISSLQPEDFATYYCQQYNSYSPWTFGQGTKVEIKRTVAAPSVFIFPPSDEQLKSGTASVVCLLNNFYPREAKVQWKVDNALQSGNSQESVTEQDSKDSTYSLSSTLTLSKADYEKHKVYACEVTHQGLSSPVTKSFNRGEC
notes: also called purified CDS-1
B2: CDS-3, fused form in which human IL-7 is fused to the C terminal side of the heavy chain of CDS-1 (antibody, human IgG1, kappa, L234A L235A)
heavy: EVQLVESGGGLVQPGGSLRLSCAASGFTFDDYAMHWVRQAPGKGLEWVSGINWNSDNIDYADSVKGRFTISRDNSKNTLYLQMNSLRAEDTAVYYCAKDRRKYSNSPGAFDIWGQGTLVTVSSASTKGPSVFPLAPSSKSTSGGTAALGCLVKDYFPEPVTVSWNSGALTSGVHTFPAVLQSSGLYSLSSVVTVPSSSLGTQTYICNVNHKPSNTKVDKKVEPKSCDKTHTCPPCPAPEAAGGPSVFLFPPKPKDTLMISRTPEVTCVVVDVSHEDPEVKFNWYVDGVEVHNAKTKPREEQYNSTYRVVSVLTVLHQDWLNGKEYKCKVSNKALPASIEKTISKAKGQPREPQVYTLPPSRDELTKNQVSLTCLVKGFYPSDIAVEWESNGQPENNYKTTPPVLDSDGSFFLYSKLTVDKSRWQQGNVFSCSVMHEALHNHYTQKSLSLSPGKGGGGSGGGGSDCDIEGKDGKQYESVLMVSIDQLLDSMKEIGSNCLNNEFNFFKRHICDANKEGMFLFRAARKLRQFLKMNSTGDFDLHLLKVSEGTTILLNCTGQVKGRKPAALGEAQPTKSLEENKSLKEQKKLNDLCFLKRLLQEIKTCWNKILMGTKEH
light: B1 light
notes: also called purified CDS-3
B3: CDS-6, fused form in which human IL-7 variant is fused to the C terminal side of the heavy chain of CDS-1 (antibody, human IgG1, kappa, L234A L235A)
heavy: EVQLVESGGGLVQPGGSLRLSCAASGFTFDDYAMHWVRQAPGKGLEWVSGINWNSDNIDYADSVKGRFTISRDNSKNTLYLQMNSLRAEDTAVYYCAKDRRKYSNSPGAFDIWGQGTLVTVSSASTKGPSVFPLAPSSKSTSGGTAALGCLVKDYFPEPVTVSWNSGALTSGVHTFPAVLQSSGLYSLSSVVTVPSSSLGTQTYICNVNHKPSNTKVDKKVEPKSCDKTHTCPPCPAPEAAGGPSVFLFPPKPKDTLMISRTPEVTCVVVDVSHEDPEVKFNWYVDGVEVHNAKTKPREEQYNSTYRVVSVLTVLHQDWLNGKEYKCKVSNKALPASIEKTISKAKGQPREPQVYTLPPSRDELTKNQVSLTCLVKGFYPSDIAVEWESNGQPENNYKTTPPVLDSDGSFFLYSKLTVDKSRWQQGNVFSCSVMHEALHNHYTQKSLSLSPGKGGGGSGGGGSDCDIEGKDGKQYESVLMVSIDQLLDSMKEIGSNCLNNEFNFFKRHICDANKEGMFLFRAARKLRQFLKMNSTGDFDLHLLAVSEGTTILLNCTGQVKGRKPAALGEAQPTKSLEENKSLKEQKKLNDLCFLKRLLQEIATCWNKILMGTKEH
light: B1 light
notes: also called purified CDS-6

Tests used:
[1] = target: T1, human CD73 protein (R&D Systems, Inc., …); assay: cell-based or functional assay
[2] = target: T2, human CD73 protein (BPS Bioscience …); assay: ELISA, human CD73 protein immobilised on plate, second run
Experimental: (§1) In order to evaluate the binding activity of CDS-1, CDS-3, CDS-6, CDS-7, and CDS-8 acquired in Example 1 to human CD73, the ELISA was performed using a human CD73 protein. The human CD73 protein (BPS Bioscience Inc., 71184) diluted in PBS (Life Technologies, Inc.) to have a concentration of 4 μg/mL was added to a MaxiSorp 384-well plate Clear (Thermo Fisher Scientific Inc.) by an amount of 20 μL/well, and then immobilized overnight at a temperature of 4° C. The next day, the resultant was washed with a wash solution (0.05% Tween-20 containing Tris-buffered saline (TBS)) once, Blocking One (Nacalai tesque, Inc.) was added thereto in an amount of 100 μL/well, and the resultant was blocked at room temperature for 30 minutes. The resultant was washed with the wash solution once again, and the purified CDS-1, the purified CDS-3, the purified CDS-6, the purified CDS-7, or the purified CDS-8 prepared in Example 1 was added thereto by an amount of 20 μL/well, respectively. These purified antibodies were diluted using a reaction buffer obtained by mixing the same amount of PBS and Blocking One, and dilution was performed in 12 steps from 10 μg/mL to 56 pg/mL. The resultant was reacted at room temperature for 1 hour, and then washed three times with a wash solution. 20 μL/well of a human IgG-heavy and light chain cross-adsorbed antibody (Bethyl Laboratories Inc., A80-219P) which had been diluted 4000-fold with a reaction buffer was added thereto, and the resultant was reacted at room temperature for 1 hour. The resultant was washed with a wash solution three times, and 20 μL/well of TMB+substrate-chromogen (DAKO Ltd., 51599) was added thereto. […] The values of absorbance at 450 nm and 540 nm were measured by Infinite M200 PRO (TECAN Inc.), and EC₅₀ values of CDS-1, CDS-3, CDS-6, CDS-7, and CDS-8 with respect to the human CD73 protein were calculated. In calculation of the EC₅₀ values, the ordinate represents a difference in the measurement values of absorbance at 450 nm and 540 nm, and the abscissa represents an antibody concentration value.

[3] = target: T2, human CD73 protein (BPS Bioscience …); assay: ELISA, human CD73 protein immobilised on plate, first run
Experimental: as §1, with “respectively.” for “respectively. These purified antibodies were diluted using a reaction buffer obtained by mixing the same amount of PBS and Blocking One, and dilution was performed in 12 steps from 10 μg/mL to 56 pg/mL. The resultant was reacted at room temperature for 1 hour, and then washed three times with a wash solution. 20 μL/well of a human IgG-heavy and light chain cross-adsorbed antibody (Bethyl Laboratories Inc., A80-219P) which had been diluted 4000-fold with a reaction buffer was added thereto, and the resultant was reacted at room temperature for 1 hour. The resultant was washed with a wash solution three times, and 20 μL/well of TMB+substrate-chromogen (DAKO Ltd., 51599) was added thereto.”

[4] = target: T3, human CD73 expressed on cells (cancer …); assay: cell-based or functional assay
[5] = target: T3, human CD73 expressed on cells (cancer …); assay: cell-based or functional assay; remark: listed apart in the source

| Binder | EC50 (ng/mL), First; inhibition of enzymatic activity of human CD73 protein (adenosine from AMP, LC/MS) [1] [ng/mL] | EC50 (ng/mL), Second; inhibition of enzymatic activity of human CD73 protein (adenosine from AMP, LC/MS) [1] [ng/mL] | EC50 [2] [µg/mL] | EC50 [3] [µg/mL] | EC50 (ng/mL), IFNγ; recovery of AMP-dependently suppressed human T cell functions [4] [ng/mL] | EC50 (ng/mL), Proliferation of T cells; recovery of AMP-dependently suppressed human T cell functions [4] [ng/mL] | EC50 (ng/mL), First; inhibition of enzymatic activity of human CD73 in NCI-H1373 cells (adenosine from AMP, LC/MS) [5] [ng/mL] | EC50 (ng/mL), Second; inhibition of enzymatic activity of human CD73 in NCI-H1373 cells (adenosine from AMP, LC/MS) [5] [ng/mL] |
| --- | --- | --- | --- | --- | --- | --- | --- | --- |
| B1 | 16.8 | 9.2 | 0.0088 | 0.0039 | 5.8 | 23.2 | 785 | 579 |
| B2 |  | 19.4 | 0.0209 |  |  |  |  | 455 |
| B3 |  | 20.4 | 0.0196 |  |  |  |  | 678 |
